Measured values as given in patent US5853984, “Use of nucleic acid ligands in flow cytometry” (NeXstar Pharmaceuticals, Inc.).

Experiments:
[1] = biological target: T1, Human neutrophil elastase (HNE) (Homo sapiens) (UniProt P08246); test: flow; details: HNE on polystyrene beads, 2 mM MgCl2, 1% BSA, room temperature
T1 sequence: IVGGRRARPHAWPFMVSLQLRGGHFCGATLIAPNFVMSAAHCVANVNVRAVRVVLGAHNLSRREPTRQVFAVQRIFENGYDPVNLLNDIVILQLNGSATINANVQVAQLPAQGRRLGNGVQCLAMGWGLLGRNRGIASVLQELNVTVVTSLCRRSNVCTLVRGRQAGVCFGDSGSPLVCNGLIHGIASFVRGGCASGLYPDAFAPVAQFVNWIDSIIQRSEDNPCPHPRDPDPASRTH

[2] = biological target: T1, Human neutrophil elastase (HNE) (Homo sapiens); test: filter; details: 150 mM NaCl, 100 mM Tris-HCl pH 7.0, 2 mM MgCl2, 6 mM KCl, 0.02% HSA, 37 C
[3] = biological target: T2, Human neutrophil elastase (HNE) (Homo sapiens, UniProt P08246 P08246:30-267); test: flow; HNE on polystyrene beads, 2 mM MgCl2, 1% BSA, room temperature; details: tags: Athens Research and Technology, salt-free lyophilized solid; label: fluorescein; G-quartet with duplex ends
Method: Beads (0.5% solids) in acetate buffer were coated with HNE (0.5 μg/cm² of bead surface area) for 30 min and then washed and suspended (approx. 5×10⁵ beads/μL) in acetate buffer containing 2% BSA. HNE coated beads were stored at 4° C. until use.
Staining of HNE coated beads was achieved by incubating beads (approx. 3×10⁵) with varying concentrations of fluoresceinated oligonucleotides in 50 μL of binding buffer consisting of 100 mM Tris-HCl (pH 7.0), 0.15M NaCl, 6 mM KCl, 2 mM MgCl₂ and 1% BSA for 30 min at room temperature. The beads were then washed with 2 mL of the same buffer and suspended in 0.5 mL for analysis. Staining with mouse anti-HNE was accomplished in the same method except that bound antibody was detected by a second step fluorescein isothiocyanate (FITC) labeled antibody (X56-FITC). […] Analysis was performed on a FACScan™ flowcytometer (Becton Dickinson). The sensitivity of the flowcytometer was adjusted so that the autofluorescence of the unstained beads was located in the middle of the first decade.

[4] = biological target: T2, Human neutrophil elastase (HNE); test: filter; 150 mM NaCl, 100 mM Tris-HCl pH 7.0, 2 mM MgCl2, 6 mM KCl, 0.02% HSA, 37 C; details: tags: Athens Research and Technology, salt-free lyophilized solid; label: fluorescein; G-quartet with duplex ends
[5] = biological target: T2, Human neutrophil elastase (HNE); test: flow; second-step staining with streptavidin-phycoerythrin; affinity lower than direct fluorescence measurement; details: tags: Athens Research and Technology, salt-free lyophilized solid; label: biotin (streptavidin-phycoerythrin); G-quartet with duplex ends
[6] = two internal fluoresceins in extension
[7] = tail-to-tail dimer via symmetric 3'-3' linker (X) with ethylene glycol linkers and two fluoresceins (LFLXLFL)

**Q.** For “GNCACAGTCGACGATACTGCGTGGGTTGGGGCGGGTAGGGCCAGCAGTCTCGTNGACTGRGTC [DNA-EXT]”, which Kd [1, 6] is on record?
**A.** 48 nM

**Q.** And the Kd [2, 6]?
**A.** 12 nM

**Q.** With “TAGCGATACTGCGTGGGTTGGGGCGGGTAGGGCCAGCAGTCTCGTNNNNNNNTGCTCTGACGACCGGGATGGGCGGGGTTGGGTGCGTCATAGCGAT [DNA-DIMER-TT]” as the molecule, how does the Kd [1, 7] read?
**A.** 20 nM

**Q.** What about the Kd [2, 7] of the same molecule?
**A.** 3 nM

B1: DNA-LNK-5F (ssDNA)
DNA: TAGCGATACTGCGTGGGTTGGGGCGGGTAGGGCCAGCAGTCTCGT
modifications: 5' fluorescein followed by two hexaethylene glycol spacers [5' fluorescein + two hexaethylene glycol spacers (n1-n3, left out) before T1]
**Q.** With B1 as the molecule, how does the Kd [3] read?
**A.** 110 nM

**Q.** What about the Kd [4] of the same molecule?
**A.** 12 nM

**Q.** Does TAGCGATACTGCGTGGGTTGGGGCGGGTAGGGCCAGCAGTCTCGTT (ssDNA, biotin attached to 3' end through a linker) [biotinylated DNA ligand] bind [5]?
**A.** binds
